Test [1] has as its target C-terminal half of IQGAP1 (amino acids 864–1657). On the set-up: method as in PMID 17984089. The following applies: scintillation proximity assay; read-out: equilibrium dissociation constant (Kd) of Cdc42-Q61L binding to IQGAP1 fragment; cited from earlier work. On the technique in general: SPA uses beads or plates that emit light when radiolabelled molecules are held near them.

Test [2] addresses T1, GST-IQGAP1-C (Homo sapiens, UniProt P46940).
T1 construct: the C-terminal half of IQGAP1 (comprising amino acids 864–1657) containing a GST-tag; made in house; host or cells: Escherichia coli BL-21
T1 sequence (P46940 864-1657): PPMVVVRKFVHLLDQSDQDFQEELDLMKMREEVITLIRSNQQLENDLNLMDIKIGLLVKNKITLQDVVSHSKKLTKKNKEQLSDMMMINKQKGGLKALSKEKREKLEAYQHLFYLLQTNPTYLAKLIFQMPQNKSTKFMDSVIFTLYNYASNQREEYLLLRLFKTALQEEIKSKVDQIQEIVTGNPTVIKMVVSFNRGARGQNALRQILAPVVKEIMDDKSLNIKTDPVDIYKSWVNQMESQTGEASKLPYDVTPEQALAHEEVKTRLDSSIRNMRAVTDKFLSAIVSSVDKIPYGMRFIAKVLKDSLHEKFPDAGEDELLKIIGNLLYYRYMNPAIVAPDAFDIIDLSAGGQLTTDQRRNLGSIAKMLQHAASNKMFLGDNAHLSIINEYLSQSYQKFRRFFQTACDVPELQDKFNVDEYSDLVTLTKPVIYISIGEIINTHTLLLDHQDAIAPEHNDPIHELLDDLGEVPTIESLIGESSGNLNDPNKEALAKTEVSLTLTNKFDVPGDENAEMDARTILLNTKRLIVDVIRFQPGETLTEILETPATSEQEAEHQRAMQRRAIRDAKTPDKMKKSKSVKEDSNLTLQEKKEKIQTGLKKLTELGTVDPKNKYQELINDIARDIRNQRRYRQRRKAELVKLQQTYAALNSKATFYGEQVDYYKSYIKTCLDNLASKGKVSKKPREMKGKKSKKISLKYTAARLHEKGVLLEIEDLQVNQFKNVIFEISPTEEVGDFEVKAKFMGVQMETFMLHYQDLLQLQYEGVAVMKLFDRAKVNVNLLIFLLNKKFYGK
In words: GST pull-down assay and Western blotting. The test is classed as binding. Conditions: 2 h at 4 °C, Western blot with anti-Cdc42. How it is done:
(a) Schematic representation of IQGAP1 protein. The C-terminal half of IQGAP1 (amino acids 864–1657) was used in the HTRF assay. (b) GST pull-down assay. GST-IQGAP1-C was incubated with His-tagged Cdc42-N17 or Cdc42-Q61L for 2 h at 4 °C. GST alone was incubated with Cdc42-Q61L as the negative control. Complexes were isolated using glutathione-Sepharose and resolved by SDS-PAGE. The gel was cut at 70 kDa. The upper part of the gel was stained with Coomassie blue. The lower portion of the gel was transferred to PVDF membrane and probed with anti-Cdc42 antibodies. (c) Scheme of the HTRF assay in 384–well format showing fluorescent labeled GST-IQGAP1-C (donor Europium cryptate, K) and His-Cdc42-Q61L (acceptor XL665). (d) Time resolved fluorescence was detected at 615 and 665 nm on the Biotek Synergy using recombinant proteins. The Y-axis represents the ratio of acceptor to donor emission wavelength multiplied by 10,000. The means and standard errors of two replicates are shown. The green bar (Buffer) indicates samples without His-Cdc42. […] No single label is printed for the pair, so the substance label joins the two printed names.

In the case of “Cdc42-Q61L: constitutively active Cdc42 mutant construct that binds IQGAP1 with high affinity”, the Kd (in general, the concentration at which binding is half-saturated) in test [1] was 24 ± 4 nM. Also, the “binding to IQGAP1 in GST pulldown” value in test [2] was “binds to the C-terminal region of IQGAP1”.
Turning to “Cdc42-N17: dominant negative Cdc42 mutant, negative control”, the “binding to IQGAP1 in GST pulldown” value in test [2] was “no detectable binding”.

Source of the values: publication PMC9576799, “Discovery of small molecule inhibitors that effectively disrupt IQGAP1-Cdc42 interaction in breast cancer cells” (Scientific Reports, 2022).
